Experimental data from patent publication US20070134248A1.

Molecular target: KV4-1 Id proteins
Assay: ELISA

KV4-1 Id proteins recognized / tested (of 41 Id proteins): 35
B1: mAb clone 12C3 (antibody, V domains shown)
VH: EVKLVESGGGLVQPGGSLSLSCAASGFTYTDYYMNWVRQPPGKALEWLALIRNKANGYTTEYSASLKGRFTISRDNSQSILYLQMNALRAEDSATYYCVRENINYYFDYWGQGTTLTVSS
VL: DIVLTQSPASLAVSLGQRATISCRASESVEYFGASLMQWYQQKSGQPPKLLIRAATNVESGVPARFSGSGSGTDFSLNIHPVEEDDIAMYFCQQSRKVPWTFGGGTKLEIKR
